Results on 94 variants are retold here after the supplement of paper PMC10567573.

First the molecules themselves.
B1: SETD8 (parent)
chain: KKAQGKTQQNRKLTDFYPVRRSSR
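Note: lentivirally expressed fusions sorted by FACS into six bins by GFP to DsRed ratio, PSI derived from sequencing read proportions per bin multiplied by bin number.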

The variants in this series derive from B1. As to the kind of experiment: protein stability index of a GFP-peptide fusion (GPS, HEK-293T) (PSI 1-6); higher = more stable. Particulars: c terminus: a fixed tail appended.
KKAQGKTQQMRKLTDFYPVRRSSR [N10M]: the protein stability index was found to be 2.39.

Regarding KKAQGKTQQERKLTDFYPVRRSSR [N10E], the protein stability index turned out to be 2.67.

Consider KKAQGKTQQIRKLTDFYPVRRSSR [N10I], for which the protein stability index amounted to 3.4.

With KKAQGKTQQTRKLTDFYPVRRSSR [N10T], the protein stability index stood at 2.17.

Consider KKAQGKTQQNRKLTDFYPVRSSSR [R21S], for which the protein stability index was determined as 3.25.

Regarding KKAQGKTQQNRKLTDFYPVRISSR [R21I], the protein stability index worked out at 3.33.

For the variant KKAQGKTQQNRKLTDFYPVRDSSR [R21D], the protein stability index was determined as 3.23.

On to KKAQGKTQQNRKLTDFYPVRCSSR [R21C], for which the protein stability index is 2.23.

Regarding KKAQGKTQQNRKLTDFYPVRGSSR [R21G], the protein stability index amounted to 2.9.

For the variant KKAQGKTQQNRKLTDFYPVRVSSR [R21V], the protein stability index was 3.

As to KKAQGKTQQNRKLTDFYPVRESSR [R21E], the protein stability index stood at 3.17.

For KKAQGKTQQNRKLTDFYPVRPSSR [R21P], the protein stability index was 2.7.

Consider KKAQGKTQQNRKLTDFYPVRASSR [R21A], for which the protein stability index is 2.52.

Consider KKAQGKTQQNRKLTDFYPVRNSSR [R21N], for which the protein stability index is 3.2.

On to KKAQGKTQQNRKLTDFYPVRMSSR [R21M], for which the protein stability index is 3.63.

Turning to KKAQGKTQLNRKLTDFYPVRRSSR [Q9L], the protein stability index worked out at 2.65.

With KKAQGKTQENRKLTDFYPVRRSSR [Q9E], the protein stability index was 3.12.

Consider KKAQGKTQDNRKLTDFYPVRRSSR [Q9D], for which the protein stability index came out at 2.83.

Regarding KKAQGKTQANRKLTDFYPVRRSSR [Q9A], the protein stability index is 3.26.

Consider KKAQGKTQYNRKLTDFYPVRRSSR [Q9Y], for which the protein stability index was 2.92.

For KKAQGKTQCNRKLTDFYPVRRSSR [Q9C], the protein stability index stood at 3.93.

For KKAQGKHQQNRKLTDFYPVRRSSR [T7H], the protein stability index worked out at 2.88.

KKAQGKDQQNRKLTDFYPVRRSSR [T7D]: the protein stability index turned out to be 3.32.

In the case of KKAQGKLQQNRKLTDFYPVRRSSR [T7L], the protein stability index came out at 3.08.

KKAQGKSQQNRKLTDFYPVRRSSR [T7S]: the protein stability index was 2.26.

Take KKAQGKQQQNRKLTDFYPVRRSSR [T7Q]: the protein stability index came out at 2.66.

Consider KKAQGKMQQNRKLTDFYPVRRSSR [T7M], for which the protein stability index was determined as 2.41.

Take KKAQGKTQQNRKLTDFYPVRRSSL [R24L]: the protein stability index was determined as 2.08.

With KKAQGKTQQNRKLTDFYPVRRSSA [R24A], the protein stability index is 2.12.

Regarding KKAQGKTQQNRKLTDFYPVRRSSN [R24N], the protein stability index was 2.76.

As for KKAQGKTQQNRKLTDFYPVRRSST [R24T], the protein stability index turned out to be 2.75.

Regarding KKAQGKTQQNRKLTDFYPVRRSSS [R24S], the protein stability index was determined as 3.83.

As for KKAQGKTQQNRKLTDFYPVRRSSP [R24P], the protein stability index came out at 3.87.

With KKAQGKTQQNRKLTDFYPCRRSSR [V19C], the protein stability index was determined as 3.26.

Consider KKAQGKTQQNRKLTDFYPMRRSSR [V19M], for which the protein stability index is 3.01.

As to KKAQGKTQQNRKLTDFYPTRRSSR [V19T], the protein stability index was 2.72.

For KKAQGKTQQNRKLTDFYPDRRSSR [V19D], the protein stability index was 3.32.

With KKAQGKTQQNRKLTDFYPWRRSSR [V19W], the protein stability index worked out at 2.09.

Regarding KKAQGKTQQNRKLTDFYPQRRSSR [V19Q], the protein stability index worked out at 3.49.

With KKAQGKTQQNRKLTDFYPYRRSSR [V19Y], the protein stability index turned out to be 3.35.

With KKAQGKTQQNRKLTDFYPRRRSSR [V19R], the protein stability index was found to be 4.2.

On to KKAQGKTQQNRKLTDFYPARRSSR [V19A], for which the protein stability index was found to be 4.57.

With KKAQGKTQQNRKLTDFYPHRRSSR [V19H], the protein stability index turned out to be 3.63.

Turning to KKAQGKTQQNLKLTDFYPVRRSSR [R11L], the protein stability index is 2.43.

With KKAQGKTQQNIKLTDFYPVRRSSR [R11I], the protein stability index was found to be 2.45.

For the variant KKAQGKTQQNSKLTDFYPVRRSSR [R11S], the protein stability index was 2.85.

Regarding KKAQGKTQQNPKLTDFYPVRRSSR [R11P], the protein stability index turned out to be 2.61.

With KKAQGKTQQNEKLTDFYPVRRSSR [R11E], the protein stability index turned out to be 2.15.

As for KKAQGKTQQNYKLTDFYPVRRSSR [R11Y], the protein stability index stood at 2.94.

KKAQGKTQQNWKLTDFYPVRRSSR [R11W]: the protein stability index came to 2.76.

As for KKAQGKTQQNGKLTDFYPVRRSSR [R11G], the protein stability index was found to be 1.5.

For the variant KKAQGKTQQNDKLTDFYPVRRSSR [R11D], the protein stability index amounted to 3.45.

Turning to KKAQGKTQQNQKLTDFYPVRRSSR [R11Q], the protein stability index was 2.71.

KKAQGKTQQNAKLTDFYPVRRSSR [R11A]: the protein stability index stood at 1.6.

Consider KKAQGKTQQNFKLTDFYPVRRSSR [R11F], for which the protein stability index amounted to 2.91.

KKAQGKTQQNRKLTDFYPVRRSER [S23E]: the protein stability index was 3.5.

With KKAQGKTQQNRKLTDFYPVRRSTR [S23T], the protein stability index was 2.23.

Turning to KKAQGKTQQNRKLTDFYPVRRSNR [S23N], the protein stability index is 2.66.

KKAQGKTQQNRKLTDFYPVRRSGR [S23G]: the protein stability index was determined as 1.83.

For KKAQGKTQQNRKLTDFYPVRRSAR [S23A], the protein stability index came to 3.62.

Turning to KKAQGKTQQNRKLTDFYPVRRSFR [S23F], the protein stability index amounted to 3.54.

For the variant KKAQGKTQQNRKSTDFYPVRRSSR [L13S], the protein stability index came out at 2.79.

Regarding KKAQGKTQQNRKFTDFYPVRRSSR [L13F], the protein stability index came to 3.52.

Turning to KKAQGKTQQNRKWTDFYPVRRSSR [L13W], the protein stability index stood at 4.33.

Consider KKAQGKTQQNRKETDFYPVRRSSR [L13E], for which the protein stability index worked out at 2.77.

Consider KKAQGKTQQNRKRTDFYPVRRSSR [L13R], for which the protein stability index worked out at 5.53.

With KKAQGKTQQNRKYTDFYPVRRSSR [L13Y], the protein stability index was found to be 3.47.

KKAQGKTQQNRKLTDFYQVRRSSR [P18Q]: the protein stability index stood at 1.74.

Take KKAQGKTQQNRKLTDFYCVRRSSR [P18C]: the protein stability index was 2.47.

Turning to KKAQGKTQQNRKLTDFYRVRRSSR [P18R], the protein stability index was 2.54.

Turning to KKAQGKTQQNRKLTDFYFVRRSSR [P18F], the protein stability index is 2.61.

Consider KKAQGKTQQNRKLTDFYYVRRSSR [P18Y], for which the protein stability index worked out at 2.51.

As for KKAQGKTQQNRKLTDFYWVRRSSR [P18W], the protein stability index came to 3.18.

For the variant KKAQGKTQQNRKLTDFLPVRRSSR [Y17L], the protein stability index was 2.84.

KKAQGKTQQNRKLTDFTPVRRSSR [Y17T]: the protein stability index came to 2.06.

On to KKAQGKTQQNRKLTDFEPVRRSSR [Y17E], for which the protein stability index is 3.39.

Take KKAQGKTQQNRKLTDFDPVRRSSR [Y17D]: the protein stability index turned out to be 4.52.

Take KKAQGKTQQNRKLTDFQPVRRSSR [Y17Q]: the protein stability index turned out to be 4.09.

Regarding KKAQGKTQQNRKLTDFVPVRRSSR [Y17V], the protein stability index was 3.37.

As for KKAQGKTQQNRKLTDFFPVRRSSR [Y17F], the protein stability index turned out to be 2.72.

As to KKAQGPTQQNRKLTDFYPVRRSSR [K6P], the protein stability index turned out to be 2.06.

On to KKAQGRTQQNRKLTDFYPVRRSSR [K6R], for which the protein stability index stood at 3.1.

As to KKAQGGTQQNRKLTDFYPVRRSSR [K6G], the protein stability index worked out at 3.09.

On to KKAQGNTQQNRKLTDFYPVRRSSR [K6N], for which the protein stability index was 2.82.

On to KKAQGWTQQNRKLTDFYPVRRSSR [K6W], for which the protein stability index turned out to be 2.33.

Consider KKAQGHTQQNRKLTDFYPVRRSSR [K6H], for which the protein stability index stood at 1.57.

For the variant KKAQGATQQNRKLTDFYPVRRSSR [K6A], the protein stability index was 3.18.

In the case of KKAQGITQQNRKLTDFYPVRRSSR [K6I], the protein stability index came out at 2.09.

As to KKAQGKTQQNRKLTDFYPVRRHSR [S22H], the protein stability index worked out at 1.38.

As to KKAQGKTQQNRKLTDFYPVRRGSR [S22G], the protein stability index worked out at 2.42.

Take KKAQGKTQQNRKLTDFYPVRRMSR [S22M]: the protein stability index is 3.38.

Turning to KKAQGKTQQNRKLTDFYPVRRTSR [S22T], the protein stability index was 2.63.

On to KKAQGKTQQNRKLTDFYPVRRLSR [S22L], for which the protein stability index is 2.02.

As to KKAQGKTQQNRKLTDFYPVRRPSR [S22P], the protein stability index came to 2.89.
